Molecular target: recombinant SARS-CoV-2 S1 protein expressed from insect (Sf9) cells (S1-His, SinoBiological, Cat. No. 40591-V08B1) (SARS-CoV-2) (UniProt P0DTC2)
Assay: ELISA, coated S1 from Sf9 cells, HRP-conjugated lectin 10 ug/mL

Salvia sclarea lectin (SSA; Cat. No: H-3501-1)
mean fold increase of OD450: 3.97 fold
